# Test results published in patent publication US11813311B2, “Treatment and prevention of metabolic diseases” (Singapore Health Services PTE LTD., priority 2019, dated 2023).
# Entries after “also recorded” stand apart in the source; their conditions may differ.
# What was measured:
# HSCs = assay: IL-11 expression and secretion by HSCs (RNA-seq, ELISA); format: cell-based, human; details: for IL-11 secretion from HSCs: ELISA
# Excerpt: TGFβ1 stimulation of human hepatic stellate cells and antibody treatment in HFMCD: Sequenced libraries were demultiplexed using bcl2fastq v2.19.0.316 with the-no-lane-splitting option. Adapter sequences were then trimmed using trimmomatic^6 v0.36 in paired end mode with the options MAXINFO:35:0.5 MINLEN:35. Trimmed reads were aligned to the Homo sapiens GRCh38 using STAR′ v. 2.2.1 with the options—outFilterType BySJout-outFilterMultimapNmax 20-alignSJoverhangMin 8-alignSJDBoverhangMin 1-outFilterMismatchNmax 999-alignIntronMin 20-alignIntronMax 1000000-alignMatesGapMax 1000000 in paired end, single pass mode. Only unique alignments were retained for counting. Counts were calculated at the gene level using the FeatureCounts module from subread^8v. 1.5.1, with the options -O-s 2-J-T 8-p-R-G. The Ensembl release 86 hg38 GTF was used as annotation to prepare STAR indexes and for FeatureCounts.
# The levels of IL-11 and MMP-2 in equal volumes of cell culture media were quantified using Human IL-11 Quantikine ELISA kit (D1100, R&D Systems) and Total MMP-2 Quantikine ELISA kit (MMP200, R&D Systems), respectively. Total secreted collagen in the cell culture supernatant was quantified using Sirius red collagen detection kit (9062, Chondrex). Total hydroxyproline content in the livers was measured using Quickzyme Total Collagen assay kit (Quickzyme Biosciences). Mouse serum levels of alanine aminotransferease (ALT), cholesterol, and triglycerides were measured using Alanine Transaminase Activity Assay Kit (ab105134, abcam), Cholesterol Assay Kit (ab65390, abcam), and Triglyceride Assay Kit (ab65336, abcam), respectively. Liver Triglycerides (TG) measurements were performed using triglyceride colorimetric assay kit (Ser. No. 10/010,303, Cayman). All ELISA and colorimetric assays were performed according to the manufacturer's protocol.
# [1] = system: primary human hepatocytes; assay: Palmitate loading (lipotoxicity) of primary human hepatocytes; format: cell-based; details: palmitate:BSA 6:1
# Method: Palmitate:BSA conjugated solution in the ratio of 6:1 was prepared as described earlier (Alsabeeh et al., 2018). Palmitate (0.5 mM) conjugated in fatty acids free BSA was used to treated cells as described in figure legends; 0.5% BSA solution was used as control. […]
# Primary human hepatocytes were seeded on 8-well chamber slides (1×10^4 cells/well). For this experiment, cells were not serum-starved prior to palmitate treatment. 24 hours following palmitate stimulation, cells were washed, incubated with 25 μM of DCFDA solution (ab113851, Abcam) for 45 minutes at 37° C. in the dark, and rinsed with dilution buffer according to the manufacturer's protocol. Live cells with positive DCF staining were imaged with filter set appropriate for fluorescein (FITC) using a fluorescence microscope (Leica). […]
# (§1) Western blots were carried out on total protein extracts from hepatocytes and liver tissues. Hepatocyte and liver tissue lysates were homogenized in RIPA Lysis and Extraction Buffer (89901, Thermo Scientific) containing protease and phosphatase inhibitors (Roche). Protein lysates were separated by SDS-PAGE and transferred to PVDF membranes. Protein bands were visualized using the ECL detection system (Pierce) with the appropriate secondary antibodies: anti-rabbit HRP or anti-mouse HRP.
# [2] = system: primary human hepatocytes; assay: Stimulation of primary human hepatocytes with IL11, hyperIL11, hyperIL6; format: cell-based; details: for ERK and JNK (non-canonical signaling) activation: 2.5 ng/ml to 20 ng/ml
# Method: Human hepatocytes (5200, ScienCell) were grown and maintained in hepatocyte media (5201, ScienCell) supplemented with 2% fetal bovine serum (FBS) and 1% Penicillin-streptomycin.
# Primary human hepatocytes (5200, ScienCell) were maintained in hepatocyte medium ([…], ScienCell) supplemented with 2% fetal bovine serum, 1% Penicillin-streptomycin at 37° C. and 5% CO2. Hepatocytes (P2-P3) were serum-starved overnight unless otherwise specified in the methods prior to 24 hours stimulation with different doses of various recombinant proteins as described.
# For surface IL11RA, IL6R, and gp130 analysis, primary human hepatocytes and THP-1 cells were stained with IL11RA, IL6R, or gp130 antibody and the corresponding Alexa Fluor 488 secondary antibody. Cell death analysis was performed by staining primary human hepatocytes with Dead Cell Apoptosis Kit with Annexin V FITC and PI (V13242, Thermo Fisher). PI+ve cells were then quantified with the flow cytometer (Fortessa, BD Biosciences) and analyzed with FlowJo version X software (TreeStar).
# Alanine Aminotransferase (ALT) activity in the cell culture supernatant and mouse serum was measured using ALT Activity Assay Kit (ab105134, Abcam). Liver Glutathione (GSH) levels were measured using Glutathione Colorimetric Detection Kit (EIAGSHC, Thermo Fisher). Total hydroxyproline content in mouse livers was measured using Quickzyme Total Collagen assay kit (QZBtotco15, Quickzyme Biosciences). The levels of serum and liver triglycerides were measured using Triglyceride Assay Kit (ab65336, Abcam). Mouse serum levels of Aspartate Aminotransferase (AST) and cholesterol were measured using AST Assay Kit (ab105135, Abcam) and Cholesterol Assay Kit (ab65390; Abcam), respectively. All colorimetric assays were performed according to the manufacturer's protocol.
# as §1
# [3] = system: wild-type C57BL/6J and Col1a1-GFP reporter mice; assay: Daily subcutaneous injection of recombinant mouse IL-11; format: in vivo
# Method: Recombinant mouse IL-11 (rmIL11) was reconstituted to a concentration of 50 μg ml^−1 in saline. Ten-week-old male wild-type C57BL/6J mice received daily subcutaneous injection of either 100 μg kg^−1 of rmIL11 in saline (n=19) or an identical volume of saline (n=15) for 21 days.
# Ten week old male Col1a1-GFP reporter mice 19 and wild-type C57BL/6J mice received daily subcutaneous injection of either 100 μg/kg of recombinant mouse Il-11 (rmIl-11) or identical volume of saline for 21 days.
molecule,measurement,setting,value
PDGF,IL-11 secretion from HSCs,HSCs,induce IL-11 secretion
"bFGF: human bFGF recombinant protein, NASH stimulus",IL-11 secretion from HSCs,HSCs,induce IL-11 secretion
"CCCCCCCCCCCCCCCC(=O)O [palmitate, Palmitate, reference compound]","IL11 secretion, FC vs control",[1],28
"CCL2: human CCL2 recombinant protein, NASH stimulus",IL-11 secretion from HSCs,HSCs,induce IL-11 secretion
"TGFβ1: human TGFβ1 recombinant protein, pro-fibrotic stimulus [reference compound]",IL-11 upregulation in HSCs (RNA-seq),"HSCs; TGFβ1 5 ng/ml, 24 h",14.9 fold
same,IL-11 secretion from hepatocytes,"[2]; TGFβ1 5 ng/ml, 24 h",robustly secreted IL-11
"hyperIL6: IL6R:IL6 fusion protein, synthetic IL6 trans-signaling construct (R&D systems) [reference compound]",ERK and JNK (non-canonical signaling) activation,[2]; 24 h,did not activate
same,"ALT in the media, fold change (FC)",[2]; 20 ng/ml,0.9
same,STAT3 activation,"[2]; dose range, 24 h",dose-dependently induced STAT3 activation
"angiotensin II: human angiotensin (Sigma-Aldrich), NASH stimulus (DRVYIHPF; Angiotensin-2; UniProt P01019 25-32, looked up)",IL-11 secretion from HSCs,HSCs,induce IL-11 secretion
rmIL11: Recombinant mouse IL-11 (UniProtKB: P47873) (protein) PGPPAGSPRVSSDPRADLDSAVLLTRSLLADTRQLAAQMRDKFPADGDHSLDSLPTLAMSAGTLGSLQLPGVLTRLRVDLMSYLRHVQWLRRAGGPSLKTLEPELGALQARLERLLRRLQLLMSRLALPQAAPDQPVIPLGPPASAWGSIRAAHAILGGLHLTLDWAVRGLLLLKTRL,expression of key pro-fibrotic and pro-inflammatory genes,"[3]; 100 μg/kg daily s.c., 21 days",increased
same,hepatic collagen content,"[3]; 100 μg/kg daily s.c., 21 days",increased
same,serum alanine aminotransferase (ALT),"[3]; 100 μg/kg daily s.c., 21 days",increased
same,weight gain,"[3]; 100 μg/kg daily s.c., 21 days, vs saline",slowed normal mouse weight gain progression; also recorded: gained less weight
same,Col1a1+ve myofibroblasts in the liver,[3]; Col1a1-GFP reporter mice,accumulated GFP-expressing Col1a1^+ve myofibroblasts in the liver
"hyperIL11: IL11RA:IL11 fusion protein mimicking the trans-signalling complex, SEQ ID NO:21 (protein, Hyper IL-11 (IL-11RAIL-11 fusion)) MSSSCSGLSRVLVAVATALVSASSPCPQAWGPPGVQYGQPGRSVKLCCPGVTAGDPVSWFRDGEPKLLQGPDSGLGHELVLAQADSTDEGTYICQTLDGALGGTVTLQLGYPPARPVVSCQAADYENFSCTWSPSQISGLPTRYLTSYRKKTVLGADSQRRSPSTGPWPCPQDPLGAARCVVHGAEFWSQYRINVTEVNPLGASTRLLDVSLQSILRPDPPQGLRVESVPGYPRRLRASWTYPASWPCQPHFLLKFRLQYRPAQHPAWSTVEPAGLEEVITDAVAGLPHAVRVSARDFLDAGTWSTWSPEAWGTPSTGPAGQSGGGGGSGGGSGGGSVPGPPPGPPRVSPDPRAELDSTVLLTRSLLADTRQLAAQLRDKFPADGDHNLDSLPTLAMSAGALGALQLPGVLTRLRADLLSYLRHVQWLRRAGGSSLKTLEPELGTLQARLDRLLRRLQLLMSRLALPQPPPDPPAPPLAPPSSAWGGIRAAHAILGGLHLTLDWAVRGLLLLKTRL",IL-11 secretion from HSCs,HSCs,secreted IL-11
same,ERK and JNK (non-canonical signaling) activation,[2]; 24 h,activated ERK and JNK in a dose-dependent manner
same,alanine transaminase (ALT) in the media,"[2]; dose range, 24 h",dose-dependent increase
"sIL11RA: soluble IL11RA, human IL11RA (R&D systems), to potentiate putative trans-signaling (protein, UniProt Q14626 24-370, looked up, extracellular domain) extracellular domain: SPCPQAWGPPGVQYGQPGRSVKLCCPGVTAGDPVSWFRDGEPKLLQGPDSGLGHELVLAQADSTDEGTYICQTLDGALGGTVTLQLGYPPARPVVSCQAADYENFSCTWSPSQISGLPTRYLTSYRKKTVLGADSQRRSPSTGPWPCPQDPLGAARCVVHGAEFWSQYRINVTEVNPLGASTRLLDVSLQSILRPDPPQGLRVESVPGYPRRLRASWTYPASWPCQPHFLLKFRLQYRPAQHPAWSTVEPAGLEEVITDAVAGLPHAVRVSARDFLDAGTWSTWSPEAWGTPSTGTIPKEIPAWGQLHTQPEVEPQVDSPAPPRPSLQPHPRLLDHRDSVEQVAVLA",IL11-induced hepatocyte death and signaling,"[2]; IL11 20 ng/ml, sgp130 or sIL11RA 1 μg/ml",unaffected
same,ALT release from IL11-stimulated hepatocytes,[2]; increasing doses of sgp130 or sIL11RA,no effect
same,IL11 dose-dependent hepatocyte cell death on addition of decoy,[2]; sgp130 or sIL11RA 1 μg/ml,unaffected
